Patent publication US20260022170A1 (published 2026)

B1: anti-Siglec-9 monoclonal antibody clone CB6B3 (parental mouse antibody) (antibody, V domains shown)
VH: EVQLQQSGAEVVRPGALVKLSCKAAGFNIKDYFIHWVKQRPEQGLEWIGLIDPENDNTMYDPRFQVKASLTADTSSNTAYLQLSRLTSEDAAVYYCASTVVARSFDYWGQGTTLTVSS
VL: SIVMTQTPKFLLVSAGDRVTITCKASQSVSNDVAWYQQKSGQSPKLLIYYTSNRYTGVPDRFTGSGYGTDFTFTISTVQAEDLAVYFCQQDFRSPFTFGAGTKLELK
B2: humanised CB6B3 (huCB6B3) (antibody, V domains shown)
VH: EVQLVQSGAEVKKPGATVKISCKVSGYTFTDYFIHWVQQAPGKGLEWMGLIDPENDNTMYDPRFQVRVTITADTSTDTAYMELSSLRSEDTAVYYCASTVVARSFDYWGQGTTVTVSS
VL: AIQMTQSPSSLSASVGDRVTITCKASQSVSNDVAWYQQKPGKAPKLLIYYTSNRYTGVPSRFSGSGSGTDFTLTISSLQPEDFATYYCQQDFRSPFTFGGGTKVEIK
B3: Benchmark-3 (antibody, V domains shown)
VH: QSLEESGGRLVKPDETLTITCTVSGIDLSSYDMTWVRQAPGKGLEWIGIIYTGGLTYYASWAKGRFTISKTSTTVDLKITSPTTEDTATYFCAREVGDNNNFWGPGTLVTVSS
VL: DVVMTQTPASVSEPVGGTVTIKCQASESVDSGLAWYHQKPGQPPKLLIYDDTDLASGVPSRFKGSRSGTAHTLTISDLECADAATYYCQYTDYGRTYVGTFGGGTEVVIKG
B4: anti-Siglec-9 monoclonal antibody clone ED2D5 (antibody, V domains shown)
VH: EVQLVESGGGLVKPGGSLKLSCAASGFTFSDYYMYWVRQTPEKRLEWVATISDGGSDTYYPDNMKGRFTISRDNAKNNLYLQMSSLKSEDTAMYYCTRDPDYDDGRFAYWGQGTLVTVSA
VL: DIVMTQSHKFMSTSVGDRVSITCKASQDVGTVVAWYQQKSGQSPKLLIYWSSTRHTGVPDRFTGSGSGTDFTLTISNVQSEDLADYFCQQYIDYPLSFGAGTKLELK

Experiments:
[1] = biological target: human Siglec-9 protein (recombinant; construct not stated) (UniProt Q9Y336 18-344); experiment: BLI
[2] = biological target: recombinant Siglec-9 (SinoBiological, 30109-H03H) (UniProt Q9Y336 18-348); experiment: ELISA
[3] = biological target: recombinant human Siglec-9 protein (UniProt Q9Y336 18-348); experiment: ELISA
Sequence of recombinant human Siglec-9 protein (Q9Y336 18-348): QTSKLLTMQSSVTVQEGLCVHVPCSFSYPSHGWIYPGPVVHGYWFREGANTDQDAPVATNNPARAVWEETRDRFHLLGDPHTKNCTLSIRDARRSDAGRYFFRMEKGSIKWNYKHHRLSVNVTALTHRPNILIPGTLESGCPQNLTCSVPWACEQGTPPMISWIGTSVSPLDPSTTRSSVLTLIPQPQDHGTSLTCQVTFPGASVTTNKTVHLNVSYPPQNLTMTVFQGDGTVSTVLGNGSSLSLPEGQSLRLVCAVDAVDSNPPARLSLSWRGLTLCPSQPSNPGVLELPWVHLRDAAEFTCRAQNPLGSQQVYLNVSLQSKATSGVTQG

Sequence of human Siglec-9 protein (recombinant; construct not stated) (Q9Y336 18-344): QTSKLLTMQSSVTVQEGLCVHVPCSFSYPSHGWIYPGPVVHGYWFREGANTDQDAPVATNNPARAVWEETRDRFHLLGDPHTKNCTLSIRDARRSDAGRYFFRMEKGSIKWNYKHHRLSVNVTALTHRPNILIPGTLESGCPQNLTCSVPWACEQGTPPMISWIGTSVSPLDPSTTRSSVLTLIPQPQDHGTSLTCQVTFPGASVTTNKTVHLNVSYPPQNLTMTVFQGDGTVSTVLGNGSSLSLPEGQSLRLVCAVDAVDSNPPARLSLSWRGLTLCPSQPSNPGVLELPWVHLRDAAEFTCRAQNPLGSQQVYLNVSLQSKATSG
Sequence of recombinant Siglec-9 (SinoBiological, 30109-H03H) (Q9Y336 18-348): as the sequence (Q9Y336 18-348) above

Binder | Kd [1] | other results
B1 | 80 nM | 
B2 |  | EC50 [2]: 0.13 nM
B3 |  | EC50 [3]: 0.157 nM
B4 | 38 nM | 
